Measured values as given in US20040147006, “Peptides that bind to DNA and inhibit DNA replication, and methods of use” (published 2004).
Where no end group is shown, it is not given here. [ ]: non-standard residue; d: D form. pT = C[C@@H](OP(=O)(O)O)[C@H](N)C(=O)O

How the values were obtained:
[1] = molecular target: T1, E1 peptide E1-P2(25), BP-E1, unphosphorylated (Bovine papillomavirus, UniProt P03116 SEQ:1-25); test: filter; binds at 0.25 mM, better than T-2(17); EMSA works without glutaraldehyde; conditions: protein: synthetic; tags: synthetic peptide; label: 5'-32P
T1 chain: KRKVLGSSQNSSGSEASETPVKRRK

[2] = molecular target: SV40 large T antigen (full length) (Simian virus 40, UniProt P03070 P03070:1-708); test: EMSA; hexamers and double hexamers; 7 mM MgCl2, AMP-PNP, 37 C, glutaraldehyde; conditions: label: 5'-32P
[3] = molecular target: T2, T-ag peptide 1(9), phospho-Thr124 (Simian virus 40); test: filter; background at 0.5-2 mM; EMSA at 2 mM negative; conditions: protein: synthetic; tags: synthetic peptide, phosphorylated Thr124; label: 5'-32P
T2 chain: SQHS[pT]PPKK

[4] = molecular target: T3, T-ag peptide 2(9), unphosphorylated (Simian virus 40); test: as above; conditions: protein: synthetic; tags: synthetic peptide; label: 5'-32P
T3 chain: SQHSTPPKK

[5] = molecular target: T4, T-ag peptide T-2(17), unphosphorylated (Simian virus 40, UniProt P03070); test: filter; significant at 0.5 mM, saturated at 1-2 mM; higher affinity than 13-mer; conditions: protein: synthetic; tags: synthetic peptide; label: 5'-32P
T4 chain: ATADSQHSTPPKKKRKV

B1: 64-bp SV40 core origin (dsDNA)
DNA 1: TAATTTTTTTTATTTATGCAGAGGCCGAGGCCGCCTCGGCCTCTGAGCTATTCCAGAAGTAGTG
DNA 2: CACTACTTCTGGAATAGCTCAGAGGCCGAGGCGGCCTCGGCCTCTGCATAAATAAAAAAAATTA
binding result [1]: binds | binding result [2]: binds | binding result [3]: no binding | binding result [4]: no binding | binding result [5]: binds
